Legend:
[1] = molecular target: T1, mouse Chi3l1 (chitinase 3-like-1) (mouse, UniProt Q61362 30-389, limits assumed); test: Western blot and ELISA, denaturing and non-denaturing conditions
T1 construct: Recombinant mouse Chi3l1; also called murine Chi3l1; Chil1 (printed 'Chill')

[2] = molecular target: T2, human Chi3l1 (chitinase 3-like-1) (human, UniProt P36222 22-383); test: as above
T2 construct: also called YKL-40; recombinant (r) human Chi3l1
T2 sequence (P36222 22-383 limits assumed): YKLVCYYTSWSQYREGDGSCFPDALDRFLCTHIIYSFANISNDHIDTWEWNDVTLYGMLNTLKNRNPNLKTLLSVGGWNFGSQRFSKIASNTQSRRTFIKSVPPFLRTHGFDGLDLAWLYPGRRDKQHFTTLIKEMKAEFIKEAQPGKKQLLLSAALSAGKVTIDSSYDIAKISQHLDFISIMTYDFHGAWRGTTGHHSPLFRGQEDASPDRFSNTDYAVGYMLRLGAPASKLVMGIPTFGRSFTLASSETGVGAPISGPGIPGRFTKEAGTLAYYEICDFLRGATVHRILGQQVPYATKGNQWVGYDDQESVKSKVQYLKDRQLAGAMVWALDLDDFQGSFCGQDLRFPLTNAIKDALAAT

T1 sequence (Q61362 30-389 limits assumed): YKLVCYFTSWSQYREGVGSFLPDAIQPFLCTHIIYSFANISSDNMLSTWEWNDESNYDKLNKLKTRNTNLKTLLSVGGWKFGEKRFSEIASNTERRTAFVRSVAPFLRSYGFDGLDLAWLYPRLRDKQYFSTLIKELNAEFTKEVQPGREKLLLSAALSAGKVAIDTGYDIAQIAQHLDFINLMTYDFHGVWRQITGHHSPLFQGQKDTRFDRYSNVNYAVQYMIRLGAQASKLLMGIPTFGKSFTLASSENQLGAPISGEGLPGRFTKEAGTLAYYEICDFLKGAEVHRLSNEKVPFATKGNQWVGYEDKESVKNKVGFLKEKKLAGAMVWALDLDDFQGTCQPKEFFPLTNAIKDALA

B1: FRG monoclonal antibody (antibody, V domains shown)
VH: QIQLVQSGPELKKPGETVKISCKASGYTFTNYGMNWVKQAPGKGLKWMGWINTYTGEPTYADDFKGRFAFSLETSASTAYLQINNLRNEDMSTYFCARLGYGKFYVMDYWGQGTSVTVSS
VL: DVVMTQTPLSLPVSLGDQASISCRSSQSLVHSNGNTYLHWYLQKPGQSPKLLIYKVSNRFSGVPDRFSGSGSGTDFTLKISRVEAEDLGVYFCSQSTHVTWTFGGGTKLEIK
notes: also called FRG mAb; anti-Chi3l1-FRG
B1: binds [1]; binds [2].
